Columns and labels:
C. botulinum ODC (aODC) = system: T1, C. botulinum ODC (aODC)
T1 construct: gene CLI_3176

[1] = system: F. necrophorum ODC (aODC); details: 50 mM HEPES pH 7.7, 100 mM NaCl, 20 μM PLP, 1 mM DTT, 26 °C
B. cihuensis ADC = system: T2, B. cihuensis ADC; details: 50 mM HEPES pH 7.7, 100 mM NaCl, 20 μM PLP, 1 mM DTT, 26 °C
T2 construct: gene aADC

purified protein [2] = substrate: NCCCC[C@H](N)C(=O)O; assay: purified protein; details: 50 mM HEPES pH 7.7, 100 mM NaCl, 20 μM PLP, 1 mM DTT, 26 °C
purified protein [3] = substrate: NCCC[C@H](N)C(=O)O; assay: purified protein; details: 50 mM HEPES pH 7.7, 100 mM NaCl, 20 μM PLP, 1 mM DTT, 26 °C
purified protein [4] = substrate: N=C(N)NCCC[C@H](N)C(=O)O; assay: purified protein; details: 50 mM HEPES pH 7.7, 100 mM NaCl, 20 μM PLP, 1 mM DTT, 26 °C

## NCCC[C@H](N)C(=O)O [L-ornithine]
C. botulinum ODC (aODC)
  Km: 600 ± 30 µM
[1]
  Km: 650 ± 30 µM

## N=C(N)NCCC[C@H](N)C(=O)O [L-arginine]
C. botulinum ODC (aODC)
  Km: 3800 ± 250 µM
B. cihuensis ADC
  Km: 450 ± 10 µM
[1]
  Km: 19000 ± 2300 µM

## NCCCC[C@H](N)C(=O)O [L-lysine]
C. botulinum ODC (aODC)
  Km: 2000 ± 90 µM
[1]
  Km: 4000 ± 1700 µM

B1: L. ferroxidans LDC (Leptospirillum ferrooxidans C2-3) (protein)
chain: MTPYDHNRTPLFDAMVALAESRKVSFHTPGHKSGKGISTRFRKFVGPKVFSIDLTCLDEVDSLQKPRGVIREAQELAADIYGADQSFFLVNGTSGGNQAMILSVMKPGEPILLTRILHKSVVSGLIMTDCKPIFIPLQSTPDCDLLLNDRTDTIIQAMNRHPEAKKLFLTSPNYYGVTLDLPTIIQEAHSRGVTVLVDEAHGPHLHFHDDLPPSAMASNADLCVQSTHKIIGGMTQASILHAKKANIDIERLTSVLRYLQTTSPSYILMASLDLARMQMATEGKKLLSKAIDLARKARERIRKIPGLTCIDRDEVKAASGGDNDLDETKLAIGVKGIGLTGYQVSQKLNHEFGIQVEMADLHHVLVIVSIGDHREDLDRLVRAMEAISHQAMTLKSIIPINVKPPYAIASSRMNPREAFFSSHQSVPLEEALGKTAADIVTVYPPGIPLLIPGEEITQTVLDHLILMRETGATLDGLDSDNRLINIV
Purified protein [2]
  Km: 370 ± 70 µM
  kcat: 0.25 s⁻¹
  kcat/Km: 700 M⁻¹ s⁻¹
Purified protein [3]
  Km: 28000 ± 7200 µM
  kcat: 0.17 s⁻¹
  kcat/Km: 4.2 M⁻¹ s⁻¹

B2: H. thermocellum ADC (aADC) (Acetivibrio thermocellus ATCC 27405) (protein)
chain: MVLRMNQLKTPVFDAVKRYVESNVIQFHVPGHKQGAGLEELREYIGETALKMDANGMEDLDFANNPTGVIYESEMLAAQAFGAQHAYFLVNGTTSGVQAMIMSACEPGDKIILPRNAHKSTIGGIILSGAVPVYVQPEINEKLGIAMGITVESLKKAIKENPHAKAVFIINPTYYGIASDLKSLVRIAHRYEMAVLVDEAHGAHMSFHDDFPLTAMEVGADMSAVSTHKTGGSLTQSSLLLLRGNMISPERVKQVLNLTYTSSASYLLMCSLDIARKQLATKGSDMLEETLRLARMAREEINKIEGLYAFGKELIGTPGCHDFDETKLGICVSGLGYTGYEMEAKLRKEYNIQIEMSDLSNILAIVSIGDREENLVALINALKDIAAKTEKKEYPKPPIIPPTPKMIVSPRDAFYSPKKIVPLDKSVGEISGEMVMAYPPGIPVVCMGERITQDIVDYIKILKEQKTQLQGTADPYIDHIMVLGVD
Purified protein [4]
  Km: 130 ± 10 µM
  kcat: 0.05 s⁻¹
  kcat/Km: 410 M⁻¹ s⁻¹

B3: M. blatticola ADC (Methanimicrococcus blatticola) (protein)
chain: MDQNATPIIDALREFDQKNITSYDVPGHKRGIREDDFQKLVGKEVYLMDVNSPVGMDTFAHPKGVIKHSLELAAEAYKADNAFYLVNGSSSGVQIMIMTVCYDGEKILIPRNAHKSVTNSLILSGAVPVFMEPEINQNFAIASGMTLKTIQKYVEANPDAKALFLVYPTYYGACADLEQIIEYAHSKDIVVMVDQAHGAHFSFSSALPKSAAELGADLVVASTHKTGGSLTQSAMLLHNEGLVKYHSIKKRVLMFHTTSPSYLLMASLESSRKLLATQGEEIFHELVHECRKVKKEISKIPGLSVLDENEGVTTMTYDPTKIVINVTKLGLDGFDVYDIMFEKYGIQMELAEPTIVLAVIGIGDTKETIWRLVDAFRDLSDTYYGKYEMLDIPEEIVYVPPQILSPRQAFYADKVSVKIGEAVGRVAAEAVMIYPPGIPICIPGELITAETIEEILYCQENSDCVQKDSKEKDHILVVDDSTE
Purified protein [4]
  Km: 650 ± 60 µM

B4: Psychrilyobacter sp. S5 ADC (Psychrilyobacter piezotolerans) (protein)
chain: MQNKTPLFDALKNYHKTDIVSFDVPGHKKRFQNEFSDYVGHKIIELDTNSMKELDILNNPTGVIREAHQLMADAYSADEAFFLVNGTTSGIQTMVMSACNPGDKIILPRNVHKSAINALILSGATPVYIDPEVDETLGISLGISVEKIKEALIKDPDIKAVFIINPTYYGAVSDLEEIIKICHEKNMVVLVDEAHGAHFPFHEKFPKNAMALGADMSAVSIHKTGGSLTQSSVLFLNHRRIKQERVKNMLNLTQTTSASYLLMTSLDVARKTLVTQGDEIFNDLLEMISKFREELNSIPGIRCFKSILSDKLYDFDDTKIGINLHGLGLTGFEGYDILREKYNIQMELADTHNILGIASIGDTWEDYQKLIDALKEMAENYEGNNQLIDFNELESLELVVSPRDAFYSETESIPLSEAIGKVSGESIMVYPPGIPLLIQGERITKDLIDHIYFLKEQKAVITGMNDKTLNNISILKGEHR
Purified protein [2]
  Km: 6600 ± 1300 µM
  kcat: 0.06 s⁻¹
  kcat/Km: 9.5 M⁻¹ s⁻¹
Purified protein [4]
  Km: 210 ± 20 µM
  kcat: 0.3 s⁻¹
  kcat/Km: 1400 M⁻¹ s⁻¹

B5: C. exile ODC (Caldisericum exile AZM16c01) (protein)
chain: MEQERAPLYEAVSKYIKRKMIPFHMPGHSQGKGAPKILKRLFGDKFFDFDLTEVSGLDYLHYAQGVIREAENLASSLYGTEATIFLVNGTTAGVHAMILDSVRENEKIIIGRNSHRSVIGGILLAKAKPVFVQPEFNEEFGIITNVTPESIKKAITENPDAKAVLVTTPNYYGLQGRIKDIIDIVHENGMRALVDEAHGAHFPFNSKFPKSAIYLGADLVTQSAHKTLPTLTQTSFLHIPSKDVNVDRIEQILSIIESSSPSYIFMTALDVARREMALHGKEMWDKAIEVAEYARERISALDGFKVITDKTINGKDVYAFDPIKLTINVQELGYSGFEFEHILNKNGIEIELADLQNVLLFITIGTSKRDIDTLVSVLKRIEPRKEKSTVRMPKLPEAPSFAMLPFEAFQREFEVVPLRETKGRVSWGIVAPYPPGIPVLAPGMIIDEECIEFTQEVFEKGGLVQGSIRYGSEIAIRVVKGE
Purified protein [3]
  Km: 180 ± 10 µM
  kcat: 0.11 s⁻¹
  kcat/Km: 590 M⁻¹ s⁻¹
Purified protein [4]
  Km: 540 ± 40 µM
  kcat: 0.04 ± 0.002 s⁻¹
  kcat/Km: 82 ± 3.2 M⁻¹ s⁻¹

From article PMC8503589 (The Journal of Biological Chemistry, 2021)
